Values of other authors as cited in publication PMC12513479.

Legend:
[1] = target: IFNAR2 (Homo sapiens) (UniProt P48551)
[2] = target: IFNAR1 (Homo sapiens) (UniProt P17181)
Sequence of UniProt P17181 (P17181 28-436): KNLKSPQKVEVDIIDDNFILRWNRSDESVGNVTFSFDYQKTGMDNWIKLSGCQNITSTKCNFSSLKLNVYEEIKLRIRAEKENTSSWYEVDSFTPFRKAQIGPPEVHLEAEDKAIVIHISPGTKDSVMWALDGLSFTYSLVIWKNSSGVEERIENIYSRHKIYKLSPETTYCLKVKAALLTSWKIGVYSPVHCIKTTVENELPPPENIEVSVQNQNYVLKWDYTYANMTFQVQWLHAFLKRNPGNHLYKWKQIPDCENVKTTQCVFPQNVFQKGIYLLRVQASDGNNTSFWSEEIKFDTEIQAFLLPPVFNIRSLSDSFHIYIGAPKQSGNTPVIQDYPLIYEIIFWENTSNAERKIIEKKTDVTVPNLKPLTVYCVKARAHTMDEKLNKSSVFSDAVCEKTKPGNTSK

Sequence of UniProt P48551 (P48551 27-243): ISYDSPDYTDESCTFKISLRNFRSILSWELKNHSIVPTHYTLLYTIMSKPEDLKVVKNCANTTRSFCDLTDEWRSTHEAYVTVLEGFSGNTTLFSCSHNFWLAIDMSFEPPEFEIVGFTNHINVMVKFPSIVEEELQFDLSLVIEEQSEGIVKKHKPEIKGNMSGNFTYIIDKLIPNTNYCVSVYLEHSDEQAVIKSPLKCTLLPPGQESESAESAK

In the case of IFN-β (from UniProt P01574), the Kd [1] is given as 0.1 nM and the Kd [2] is given as 100 nM.
